Experimental data: publication PMC10391610, “Survivin prevents the polycomb repressor complex 2 from methylating histone 3 lysine 27” (iScience, 2023)

Tests used:
Test in all cases: peptide or protein array; PEPperCHIP microarray of 15 amino acid peptides with 10 amino acid overlap, immobilised; survivin at 1 μg/ml (53.5 nM monomer) in incubation buffer; stained with 6x His Tag Antibody DyLight680; LI-COR Odyssey read-out
[1] = target: microarray peptides covering EED 128–152 (human)
[2] = target: microarray peptides covering EZH2 172–211 (human)
[3] = target: microarray peptides covering JARID2 170–194 (human)
[4] = target: microarray peptides covering SUZ12 573–597 (human)
[5] = scale: % of maximum fluorescence intensity units

Sequence of survivin (His-tagged, from pHIS8) (O15392 whole entry): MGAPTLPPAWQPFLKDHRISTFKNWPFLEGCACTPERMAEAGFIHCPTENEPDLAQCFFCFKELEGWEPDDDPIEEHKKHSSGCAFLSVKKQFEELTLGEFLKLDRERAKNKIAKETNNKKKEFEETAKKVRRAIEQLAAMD

Substance “survivin (His-tagged, from pHIS8) (from UniProt O15392 1-142) (natural protein)” has an Integrated FI (units of the maximum FI per peptide) [1] of 0.31, an Average FI (%) [1, 5] of 10 and an Integrated FI (units of the maximum FI per peptide) [2] of 4.28. The Average FI (%) [2, 5] was 71, the Integrated FI (units of the maximum FI per peptide) [3] was 3 and the Average FI (%) [3, 5] was 100. For the same substance, the Integrated FI (units of the maximum FI per peptide) [4] was 0.6 and the Average FI (%) [4, 5] was 20.
